Data on 1 molecule can be found in paper PMC6899756, “Identification of amino acid residues of nerve growth factor important for neurite outgrowth in human dorsal root ganglion neurons” (The European Journal of Neuroscience, 2019).

Experiment [1] concerns the target T1, tropomyosin-related kinase A (TrkA) receptor (human, UniProt P04629-2 33-790, phosphotyrosine at 490 (Y490) and at 785 (Y785) after treatment of the cells with NGF). In words: cell-based or functional assay.
The target of experiment [2] is T1, tropomyosin-related kinase A (TrkA) …. In words: cell-based or functional assay. This is another data set of the same source.

T1 sequence (P04629 other isoform, or with tags, fused parts or gaps): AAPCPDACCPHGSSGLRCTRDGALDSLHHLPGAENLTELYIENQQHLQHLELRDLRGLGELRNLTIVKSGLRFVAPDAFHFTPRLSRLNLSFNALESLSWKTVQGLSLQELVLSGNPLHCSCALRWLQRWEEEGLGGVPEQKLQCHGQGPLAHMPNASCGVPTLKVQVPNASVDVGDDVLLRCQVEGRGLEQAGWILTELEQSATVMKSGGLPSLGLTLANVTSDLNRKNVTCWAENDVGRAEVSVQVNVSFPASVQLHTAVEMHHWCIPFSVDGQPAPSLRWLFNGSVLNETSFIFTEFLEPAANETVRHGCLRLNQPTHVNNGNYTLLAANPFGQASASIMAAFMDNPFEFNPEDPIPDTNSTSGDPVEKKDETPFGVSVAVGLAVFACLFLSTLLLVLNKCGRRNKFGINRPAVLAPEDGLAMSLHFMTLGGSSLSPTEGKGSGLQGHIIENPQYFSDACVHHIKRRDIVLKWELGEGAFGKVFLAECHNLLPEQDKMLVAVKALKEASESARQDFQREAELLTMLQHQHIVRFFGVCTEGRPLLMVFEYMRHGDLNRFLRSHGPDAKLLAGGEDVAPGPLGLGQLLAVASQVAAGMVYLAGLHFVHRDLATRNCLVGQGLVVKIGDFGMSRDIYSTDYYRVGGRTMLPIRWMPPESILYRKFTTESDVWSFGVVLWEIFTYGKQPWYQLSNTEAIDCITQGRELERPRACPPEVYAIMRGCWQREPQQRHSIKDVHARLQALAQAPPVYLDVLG

B1: Src homology 2 domain containing transforming protein 1 (SHC1) (natural protein, UniProt P29353 1-583, looked up)
chain: MDLLPPKPKYNPLRNESLSSLEEGASGSTPPEELPSPSASSLGPILPPLPGDDSPTTLCSFFPRMSNLRLANPAGGRPGSKGEPGRAADDGEGIVGAAMPDSGPLPLLQDMNKLSGGGGRRTRVEGGQLGGEEWTRHGSFVNKPTRGWLHPNDKVMGPGVSYLVRYMGCVEVLQSMRALDFNTRTQVTREAISLVCEAVPGAKGATRRRKPCSRPLSSILGRSNLKFAGMPITLTVSTSSLNLMAADCKQIIANHHMQSISFASGGDPDTAEYVAYVAKDPVNQRACHILECPEGLAQDVISTIGQAFELRFKQYLRNPPKLVTPHDRMAGFDGSAWDEEEEEPPDHQYYNDFPGKEPPLGGVVDMRLREGAAPGAARPTAPNAQTPSHLGATLPVGQPVGGDPEVRKQMPPPPPCPGRELFDDPSYVNVQNLDKARQAVGGAGPPNPAINGSAPRDLFDMKPFEDALRVPPPPQSVSMAEQLRGEPWFHGKLSRREAEALLQLNGDFLVRESTTTPGQYVLTGLQSGQPKHLLLVDPEGVVRTKDHRFESVSHLISYHMDNHLPIISAGSELCLQQPVERKL
As to B1, in experiment [1], the “EC50 of NGF-K95A/Q96A added to U2OS-TrkA/p75-SHC1 cells for the interaction between TrkA and SHC1 (enzyme fragment complementation, chemiluminescence)” value was found to be 0.02 µg/mL; the “EC50 of NGF-R100E added to U2OS-TrkA/p75-SHC1 cells for the interaction between TrkA and SHC1 (enzyme fragment complementation, chemiluminescence)” value was determined as 0.00056 µg/mL; the “EC50 of NGF-W99A added to U2OS-TrkA/p75-SHC1 cells for the interaction between TrkA and SHC1 (enzyme fragment complementation, chemiluminescence)” value worked out at 0.023 µg/mL; the “EC50 of wild-type NGF added to U2OS-TrkA/p75-SHC1 cells for the interaction between TrkA and SHC1 (enzyme fragment complementation, chemiluminescence)” value came to 0.0042 µg/mL. Besides, in experiment [2], the “plateau of the second activation phase at around 10 μg/ml NGF-K95A/Q96A in U2OS-TrkA/p75-SHC1 cells, relative to wild-type NGF (interaction between TrkA and SHC1, enzyme fragment complementation)” value was around 300%; the “second activation phase EC50 of NGF-K95A/Q96A in U2OS-TrkA/p75-SHC1 cells (interaction between TrkA and SHC1, enzyme fragment complementation)” value was around 3 µg/mL.
